Results on 57 substances are retold here after patent US20250154262A1.

The target in the experiment is hFcγRIIIa-V158 (human) (UniProt P08637). Nature of the experiment: SPR (Carterra LSA), protein AG capture.
Chain of hFcγRIIIa-V158 (human) (P08637 17-208 F176V limits assumed): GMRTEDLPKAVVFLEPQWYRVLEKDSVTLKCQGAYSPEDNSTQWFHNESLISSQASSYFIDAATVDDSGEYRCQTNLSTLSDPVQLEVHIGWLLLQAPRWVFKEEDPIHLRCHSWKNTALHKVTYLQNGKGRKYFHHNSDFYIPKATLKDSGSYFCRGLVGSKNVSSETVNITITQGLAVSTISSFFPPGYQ
As to A330Y_D376V_Y373W (antibody), the Fold-change relative to WT worked out at 2.4 fold, the Kd came to 123 nM, the koff is 0.0786 s⁻¹ and the kon came out at 637000 M⁻¹ s⁻¹.
The substance A330Y_S267A_D376V_S298A (antibody) yielded a Kd of 67.9 nM.
For the substance H268D_A330Y_A339T_Y373W (antibody), the Fold-change relative to WT came to 4.4 fold, the Kd is 66.3 nM, the koff is 0.019 s⁻¹ and the kon was determined as 287000 M⁻¹ s⁻¹.
As to H268D_A330Y_L251W (antibody), the Fold-change relative to WT came to 2 fold, the Kd was found to be 149 nM, the koff is 0.026 s⁻¹ and the on-rate (kon) worked out at 174000 M⁻¹ s⁻¹.
The like results for H268D_A330Y_L251W_D376V (antibody) were, in that order, 4.4 fold, 66.2 nM, 0.038 s⁻¹ and 574000 M⁻¹ s⁻¹.
On the same counts, the results for H268D_A330Y_L314K (antibody) are 5.9 fold, 49.1 nM, 0.0189 s⁻¹ and 385000 M⁻¹ s⁻¹.
On the same counts, the results for H268D_A330Y_Y373W (antibody) are 4.1 fold, 71.7 nM, 0.025 s⁻¹ and 349000 M⁻¹ s⁻¹.
The substance H268D_A339T_S298A (antibody) returned a Fold-change relative to WT of 6.4 fold, a Kd of 45.4 nM, a koff of 0.0126 s⁻¹ and a kon of 278000 M⁻¹ s⁻¹.
The like results for H268D_L251F (antibody) were, in that order, 3.9 fold, 73.9 nM, 0.0243 s⁻¹ and 328000 M⁻¹ s⁻¹.
The like results for H268D_L251F_L314G (antibody) were, in that order, 4.4 fold, 65.8 nM, 0.0253 s⁻¹ and 385000 M⁻¹ s⁻¹.
On the same counts, the results for H268D_L251F_L314K (antibody) are 4.4 fold, 65.6 nM, 0.024 s⁻¹ and 366000 M⁻¹ s⁻¹.
H268D_L251F_L314M (antibody) yielded a Fold-change relative to WT of 3.3 fold, an equilibrium dissociation constant (Kd) of 88.3 nM, an off-rate constant (koff) of 0.025 s⁻¹ and an on-rate (kon) of 283000 M⁻¹ s⁻¹.
H268D_L251F_L314M_S298A (antibody) yielded a Fold-change relative to WT of 7.9 fold, a Kd of 36.7 nM, a koff of 0.0125 s⁻¹ and a kon of 340000 M⁻¹ s⁻¹.
On the same counts, the results for H268D_L251F_L314M_Y373W (antibody) are 3.7 fold, 79.5 nM, 0.023 s⁻¹ and 289000 M⁻¹ s⁻¹.
The substance H268D_L251F_L314N (antibody) yielded a Fold-change relative to WT of 3.9 fold, a Kd of 74.9 nM, a koff of 0.0231 s⁻¹ and a kon of 309000 M⁻¹ s⁻¹.
On the same counts, the results for H268D_L251F_L314S (antibody) are 4 fold, 73 nM, 0.027 s⁻¹ and 370000 M⁻¹ s⁻¹.
H268D_L251F_L314T (antibody) registered a Kd of 68.2 nM. In other words, the double-digit nanomolar range.
Take H268D_L251F_L314V (antibody): the Fold-change relative to WT worked out at 3.4 fold, the Kd stood at 84.4 nM, the koff turned out to be 0.0225 s⁻¹ and the kon was determined as 267000 M⁻¹ s⁻¹.
On the same counts, the results for H268D_L251F_L314W (antibody) are 1.8 fold, 163 nM, 0.0241 s⁻¹ and 148000 M⁻¹ s⁻¹.
On the same counts, the results for H268D_L251F_Y373W (antibody) are 3.3 fold, 88.2 nM, 0.0228 s⁻¹ and 258000 M⁻¹ s⁻¹.
In the case of H268D_L251I_A330F_S298A (antibody), the Kd was determined as 32.1 nM. In other words, the double-digit nanomolar range.
Regarding H268D_L251Q (antibody), the Fold-change relative to WT was found to be 2.7 fold, the Kd worked out at 107 nM, the koff amounted to 0.047 s⁻¹ and the kon was determined as 438000 M⁻¹ s⁻¹.
As for H268D_L251Q_L314E (antibody), the Fold-change relative to WT was 21.9 fold, the Kd was found to be 13.3 nM, the koff amounted to 0.0152 s⁻¹ and the kon was determined as 1.15e+06 M⁻¹ s⁻¹.
On the same counts, the results for H268D_L251Q_L314G (antibody) are 6.3 fold, 45.9 nM, 0.0246 s⁻¹ and 536000 M⁻¹ s⁻¹.
On the same counts, the results for H268D_L251Q_L314M (antibody) are 3.1 fold, 93.9 nM, 0.03 s⁻¹ and 319000 M⁻¹ s⁻¹.
Substance H268D_L251Q_L314M_Y373W (antibody) had a Kd of 72.8 nM.
Turning to H268D_L251Q_Y373W (antibody), the Fold-change relative to WT was determined as 4.1 fold, the Kd was 70.2 nM, the koff amounted to 0.0292 s⁻¹ and the kon worked out at 416000 M⁻¹ s⁻¹.
In turn, H268D_L251Q_Y373W_S298A (antibody) yielded a Kd of 25.2 nM.
For H268D_L251W (antibody), the Fold-change relative to WT turned out to be 4 fold, the Kd was 72.8 nM, the koff came out at 0.0682 s⁻¹ and the kon was found to be 936000 M⁻¹ s⁻¹.
On the same counts, the results for H268D_L251W_A330Y_Y373W (antibody) are 3.9 fold, 74.6 nM, 0.044 s⁻¹ and 590000 M⁻¹ s⁻¹.
The like results for H268D_L251W_L314K (antibody) were, in that order, 3.3 fold, 87.8 nM, 0.0476 s⁻¹ and 542000 M⁻¹ s⁻¹.
As for H268D_L251W_L314M (antibody), the Fold-change relative to WT came out at 1.5 fold, the dissociation constant (Kd) is 188 nM, the koff was determined as 0.0564 s⁻¹ and the kon was 300000 M⁻¹ s⁻¹.
In the case of H268D_L251W_L314M_S298A (antibody), the Fold-change relative to WT turned out to be 4.2 fold, the equilibrium dissociation constant (Kd) worked out at 69.1 nM, the off-rate (koff) stood at 0.0269 s⁻¹ and the kon was 389000 M⁻¹ s⁻¹.
The like results for H268D_L251W_L314M_Y373W (antibody) were, in that order, 1.9 fold, 151 nM, 0.065 s⁻¹ and 431000 M⁻¹ s⁻¹.
H268D_L251W_L314N (antibody) showed a Fold-change relative to WT of 8.4 fold, a Kd of 34.5 nM, a koff of 0.0223 s⁻¹ and a kon of 647000 M⁻¹ s⁻¹.
On the same counts, the results for H268D_L251W_L314S (antibody) are 9.4 fold, 31.1 nM, 0.119 s⁻¹ and 3.83e+06 M⁻¹ s⁻¹.
Consider H268D_L251W_L314T_S298A (antibody), for which the Kd came out at 51.7 nM.
Take H268D_L251W_L314V (antibody): the Fold-change relative to WT turned out to be 3.1 fold, the Kd is 92.8 nM, the koff turned out to be 0.0231 s⁻¹ and the kon was 249000 M⁻¹ s⁻¹.
The like results for H268D_L251W_S267D_Y373W (antibody) were, in that order, 2.4 fold, 123 nM, 0.049 s⁻¹ and 397000 M⁻¹ s⁻¹.
Take H268D_L251W_S298A (antibody): the Fold-change relative to WT was determined as 6.3 fold, the Kd was found to be 46 nM, the koff was 0.0213 s⁻¹ and the kon amounted to 463000 M⁻¹ s⁻¹.
H268D_L251W_Y373W (antibody) gave a Kd of 86.8 nM.
The substance H268D_L251W_Y373W_S298A (antibody) displayed a Fold-change relative to WT of 3.3 fold, a Kd of 89.1 nM, a koff of 0.034 s⁻¹ and a kon of 381000 M⁻¹ s⁻¹.
In turn, H268D_L314K_L251Q (antibody) showed a Kd of 133 nM.
Consider H268D_L314W_Y373W_A330M (antibody), for which the Fold-change relative to WT amounted to 7.6 fold, the Kd came to 38.4 nM, the koff was determined as 0.0198 s⁻¹ and the kon was found to be 516000 M⁻¹ s⁻¹.
On the same counts, the results for H268D_S267D_L251I_A339T (antibody) are 4.8 fold, 60.7 nM, 0.0212 s⁻¹ and 348000 M⁻¹ s⁻¹.
In turn, H268E_L251Q_A339T_L314A (antibody) yielded a Kd of 118 nM.
The substance H268E_L251W_L314I_A330F (antibody) had a Fold-change relative to WT of 2.6 fold, a Kd of 111 nM, an off-rate (koff) of 0.0308 s⁻¹ and a kon of 276000 M⁻¹ s⁻¹.
The like results for H268E_L314V_L251A_A330M (antibody) were, in that order, 5.1 fold, 57.6 nM, 0.021 s⁻¹ and 365000 M⁻¹ s⁻¹.
As for L251F (antibody), the equilibrium dissociation constant (Kd) came out at 104 nM.
Same read-out and setting: to L251F_A339T_L314S_Y373W (antibody) belongs 204 nM.
On to L251F_S267A_L314S (antibody), for which the Fold-change relative to WT stood at 1.7 fold, the dissociation constant (Kd) came to 174 nM, the koff stood at 0.038 s⁻¹ and the kon amounted to 218000 M⁻¹ s⁻¹.
On the same counts, the results for L251I_L314G_A339T_A330F (antibody) are 0.2 fold, 1610 nM, 0.062 s⁻¹ and 38500 M⁻¹ s⁻¹.
Substance L314N_S267A_A330M_D376T (antibody) yielded a dissociation constant Kd of 286 nM.
Substance L314V_A330F_Y373W_H268A (antibody) showed a Fold-change relative to WT of 1.5 fold, a Kd of 190 nM, a koff of 0.035 s⁻¹ and a kon of 184000 M⁻¹ s⁻¹.
The like results for L314W_A339T_A330M_D376T (antibody) were, in that order, 1.6 fold, 179 nM, 0.045 s⁻¹ and 252000 M⁻¹ s⁻¹.
The like results for S267D_A330Y_A339T (antibody) were, in that order, 2.7 fold, 109 nM, 0.035 s⁻¹ and 320000 M⁻¹ s⁻¹.
The like results for S267D_A330Y_D376V (antibody) were, in that order, 2 fold, 145 nM, 0.0406 s⁻¹ and 279000 M⁻¹ s⁻¹.

By Kd is commonly meant the free concentration of one partner at which half of the binding sites on the other are occupied at equilibrium, for simple one-to-one binding. Read a low Kd as tighter binding. Usually koff stands for the rate constant with which the complex falls apart. Higher therefore signals a short-lived complex. A word on the kon: it is the second-order rate constant of association. A higher kon goes with fast association.
